assay: yeast display, Sf9 membrane polyspecificity reagent, FACS + sequencing; frameworks hold sequencing errors
How it was run: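 Galactose-induced (36–48 hours) yeast carrying a synthetic nanobody display library were exposed to 10% biotinylated, detergent-solubilized Sf9 membrane reagent at 4 °C for 1 hour. FACS followed streptavidin microbead enrichment, using low and high (top ~1%) gates for expression (anti-HA) and reagent binding (streptavidin). Colony PCR, MiSeq 2 × 250 sequencing and CDR-length filtering followed. Labels for polyreactivity reflect the gate of origin.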

| Sequence | polyreactivity (PSR sort gate) |
| --- | --- |
| QVQLVESGGGLVQAGGSLRISCAASGSTFANYSMGWYRQAPGKERELVAVISVRGGSTYYADSVKGRFTISRDNAKNTVYLQMNSLKPEDTAVYYCAADASGPRRYDSWGQGTQVTVSS | high polyreactivity |
| QVQLVESGGGLVQAGGSLRISCAASGSTFDDNAMGWYRQAPGKERELVASITYRGGSTYYADSVKGRFTISRDNAKNTVYLQMNSLKPEDTAVYYCAKGHYFKYDYWGQGTQVTVSS | low polyreactivity |
| QVQLVESGGGLVQAGGSLRISCAASGSTFDIYAMGWYRQAPGKERELVAAISNSGDTYYADSVKGRFTISRDNAKNTVYLQMNSLKPEDTAVYYCNADFHDWFDYWGQGTQVTVSS | high polyreactivity |
| QVQLVESGGGLVQAGGSLRISCAASGSTFGPYAMGWYRPAPGKERELVAAITKSGGRTYYADSVKGRFTISRDNAKNTVYLQMNSLKPEDTAVYYCAAYGSVGLEYWGQGTQVTVSS | high polyreactivity |
| QVQLVESGGGLVQAGGSLRISCAASGSTFQYYAMGWYRPAPGKETELVAAISDRDGGTFYADSVKGRFTISRDNAKNTVYLQMNSLKPEDTAVYYCANDAVGFRLDDNGYWGQGTQVTVSS | low polyreactivity |
| QVQLVESGGGLVQAGGSLRISCAASGSTFSNYAMGWYRQAPGKERELVAAINSGGRTKYADSVKGRFTISRDNAKNSVYLQMNSLKPEDTAVYYCAKRIENFSGSLAGRWYDYWGQGTQVTVSS | high polyreactivity |
| QVQLVESGGGLVQAGGSLRISCAASGSTFSSYAMGWYRQAPGKERELVAAISRSGDRTYYADSVKGRFTISRDNAEKTVYFQMNSLKPEDTAFYYCNTVYINRVTNLYDYWGQGTQVTVSS | high polyreactivity |
| QVQLVESGGGLVQAGGSLRISCAASGSTFTTYSMGWYRQAPGKEREKVAAIRFSGGTTYYADSVKGRFTISRDNAKNTVYLQMNSLKPEDTAVYYCAAVYISRIFFGRARGDYWGQGTQVTVSS | low polyreactivity |
| QVQLVESGGGLVQAGGSLRISCAASGSTFWTYAMGWYRQAPGKERELVAAITTGGNTYYADSVKGRFTISRDNAKNTVYLQMNSLKPEDTAVYSCAAASWTYYYSQYGAVFREYDYWGQGTEVTVSS | low polyreactivity |
| QVQLVESGGGLVQAGGSLRISCAASGSTFYFNAMGWYRQAPGKERELVAGISSGGSTYYADSVKWRFTISRDNAKTTVYLQMNSLKPEDTAVYYCAATWLVERPFSYTEYGYWGQGTQVTVSS | low polyreactivity |
| QVQLVESGGGLVQAGGSLRISCAASGSTFYYYAMGWYRQAPGKERELVAAISTTGGSTYYADSVKGRFTISRDNAKNTVYLQMNSLKPEDTAVYYCNAVTRYSRVRAVSSRDSEYWGQGTQVTVSS | high polyreactivity |
| QVQLVESGGGLVQAGGSLRISCAASGSTITWYTMGWYRQAPGKERELVATIRKRGGSTYYADSVKGRFTISRDNAKNTVYLQMNSLKPEDTAVYYCNDTRLIYRFNPEEAGSTIPYDYWGQGTQVTVSS | high polyreactivity |
| QVQLVESGGGLVQAGGSLRISCAASGSTLVGKVMGWYRQAPGKERELVADITLSGGSTYYSDSVKGRFTISRDNAKNTVYLQMNSLKPEDTAVYYCNDVFFNYLLEYDYWGQGTQVTVSS | high polyreactivity |
| QVQLVESGGGLVQAGGSLRISCAASGYIFTGNAMGWYRKAPGKEREFVAAISWSGGSTYYADSVKGRFTISRDNAKNTVYLQMNSLKPEDTAVYYCNKYRPYGRIYHLAYGRDYWGQGTQVTVSS | high polyreactivity |
| QVQLVESGGGLVQAGGSLRISCAAYGSIFTRYAMGWYRQAPGKERELVAAINSGGSTKYADSVKGRFTISRDNAKNSVYLQMISLKPEDTAVYYCNAGYWWYGYDYWGQGSQVTVSS | high polyreactivity |
| QVQLVESGGGLVQAGGSLRISCAPSGRIFSYNAMGWYRPAPGKERELVAAINYSDDSTYYADSVKGRFTISRDNAKNTVYLQMNSLKPEDTAVYYCNADASSIVPSYDRPFDYWGQATQVTVSS | low polyreactivity |

| Sequence | polyreactivity (PSR sort gate) |
| --- | --- |
| QVQLVESGGGLVQAGGSLRISCAPSGSTFIPNDMGWYRQAPGKERELVAAITVSGDDTYYADSVKGRFTISRDNAKNNVYVQMNILKPEVTAVYYCAAEWGLYVGQYEYWGQGTQVTVSS | low polyreactivity |
| QVQLVESGGGLVQAGGSLRISCASSGRIFAFYVMGWYRQAPGKERELVAAISIRGTRTYYADSVKGRFTISRDNAKNTVYLQMNSLKPVDTAVYYCNAVTFPHYYDYWGQGPQVTVSS | high polyreactivity |
| QVQLVESGGGLVQAGGSLRISCASSGRIFTFYAMGWYRPAPGKERELVAAISSGGSTYYADSVKGRFTISRDNAKNTFYLQMNSLKPEDTAVYYCAAEPVWYADYDYWGQGTQVTVSS | low polyreactivity |
| QVQLVESGGGLVQAGGSLRISCDASGRTFYVYDRGWYRQAPGKERELVAVISSSGSTNYADSVKGRFTISRDNAKNTVYLQMNSLKPEDTAVYYCNRRRWYFFSLDYWGQGTQVTVSS | high polyreactivity |
| QVQLVESGGGLVQAGGSLRISCDASGSIFELNAMGWYRQAPGKERELVAAISSGSTYYADSVKGRFTITRDNAKNTVYLQMNSLKPVDTAVYYCAKRWRRRFVDVWSLYDYWGQCTQVTVSS | low polyreactivity |
| QVQLVESGGGLVQAGGSLRISSAASGRTFVNYTMGWYRQAPGKERELVAAITSSGGSTYYADSVKGRFTISRDNAKNTVYLQMNSLKPEDTAVYYCASAIFDLSFWLYYWGQGTQVTVSS | low polyreactivity |
| QVQLVESGGGLVQAGGSLRISSAASGSIFLVNALGWYRHAPGKERELVAGISDGGSTYYADSVKGRFTISRDNAKNSVYLLLICLKPEDTAVYFCAAESEQWFSYVLSYDWESDSWGQGSQVTVSS | low polyreactivity |
| QVQLVESGGGLVQAGGSLRISSPASGSIFTLYDMGWYRQAPGKERELVSAITEDGASTYYADSVKGRFTISRDIAKNTVYLQMNSLKPEDTAYYYCAAHPTYWPVWYVLYDYWGQGTQVTLSS | low polyreactivity |
| QVQLVESGGGLVQAGGSLRITCAASGRIFGLYAMGWNRQAPGKEREFVAASSWSGTRTNYADSVKGRFTISRDNAKNTVDLQMNSLKPEDTAVYYCAAAYVSYTGYYGQEYDYWGQGTQVTVSS | high polyreactivity |
| QVQLVESGGGLVQAGGSLRKSCAASGRTFGYNTMGWYRQAPGKERELVAAITWSGGRTYYADSVKGRFTISRDNAKNTVYLQMNSLKPEDTAVYYCIAVIGREFDYWGQGTQVTVSS | high polyreactivity |
| QVQLVESGGGLVQAGGSLRLCCAASGLTFHRYAMGSYRQAPGKERELDAAINYSGGRTYYADSVKGRFTISRDNAKNTVYLQMNSLKPEDTAVYYCAAPRASGYYWGQGTQVTVSS | high polyreactivity |
| QVQLVESGGGLVQAGGSLRLCCAASGRIFRYNAMGWYRQAPGKERELVAAITRSGGSTYYADSVKGRFTISRDNAKNTVYLQMNSLKPEDTAVYYCAKVQNGQWSTSRVPGDYQYNYWGQGTQVTVTS | high polyreactivity |
| QVQLVESGGGLVQAGGSLRLCCAASGSTQAIYAMGWYRQAPGNERELVAAISGGGSTYADSVKGRFTISRDNAKNTVYLQMNSLKPEDTAVYYCNADGWGDSFWSNFRFDYWGQGTQVSVSS | low polyreactivity |
| QVQLVESGGGLVQAGGSLRLCCAPSGSIFYGYDMGWYRQAPGKERELVATISWSSGSSTYYADSVKGRFTISRDNAKNTVYLQMNSLKPEDTAVYYCAVDFAIGYRYLGRVDYWGQGTQVTVSS | low polyreactivity |
| QVQLVESGGGLVQAGGSLRLFCAASGSTFISYAMGWYRQAPGKERELVAAISSSGGSTYYAYSVKGRFTISRDNAKNNVYLQMNSLKPEDTAVYYCAAEAVYYRSWRYYYCGQGTQVTVSS | high polyreactivity |
